Reference: EP4748858A1

Biological target: PE-Labelled Human CD7 Protein, His Tag (ACROBiosystems, Cat# CD7-HP2E3) (human) (UniProt P09564)
Assay: flow cytometry of CAR-T cells stained with PE-labelled human CD7 protein, His tag

Sequence of PE-Labelled Human CD7 Protein, His Tag (ACROBiosystems, Cat# CD7-HP2E3) (human) (P09564 26-180 limits assumed): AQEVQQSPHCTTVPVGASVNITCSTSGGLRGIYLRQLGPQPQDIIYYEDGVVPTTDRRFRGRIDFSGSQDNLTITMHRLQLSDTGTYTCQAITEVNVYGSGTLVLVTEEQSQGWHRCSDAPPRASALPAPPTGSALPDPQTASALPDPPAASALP

| Binder | CAR expression% (cells stained by PE-labelled human CD7 protein) |
| --- | --- |
| AHP19485-VHH1 CAR (protein) EVQLVESGGGLVQPGGSLRLSCAASERIFSIHAMGWYRQAPGKQRELVSSITIGGSTHYADSVKGRFTISRDNSKNTLYLQMNSLRAEDTAVYYCNSMLLAGTVGGSWGQGTLVTVSSGGGSGGGSGGGSGGGSEVQLVESGGGLVQPGGSLRLSCAASERIFSIHAMGWYRQAPGKQRELVSSITIGGSTHYADSVKGRFTISRDNSKNTLYLQMNSLRAEDTAVYYCNSMLLAGTVGGSWGQGTLVTVSSAAADYKDDDDKIEVMYPPPYLDNEKSNGTIIHVKGKHLCPSPLFPGPSKPFWVLVVVGGVLACYSLLVTVAFIIFWVRSKRSRLLHSDYMNMTPRRPGPTRKHYQPYAPPRDFAAYRSRVKFSRSADAPAYQQGQNQLYNELNLGRREEYDVLDKRRGRDPEMGGKPRRKNPQEGLYNELQKDKMAEAYSEIGMKGERRRGKGHDGLYQGLSTATKDTYDALHMQALPPR | 99.7% |
| AHP19484-VHH3 CAR (protein) QVQLVESGGGLVKPGGSLRLSCAASGSSFHFAFMGWYRQAPGKQRELVADISPGNSTNYADPVKGRFTISRDNAKNSLYLQMNSLRAEDTAVYFCRDLRSWGAWGQGTLVTVSSGGGSGGGSGGGSGGGSQVQLVESGGGLVKPGGSLRLSCAASGSSFHFAFMGWYRQAPGKQRELVADISPGNSTNYADPVKGRFTISRDNAKNSLYLQMNSLRAEDTAVYFCRDLRSWGAWGQGTLVTVSSAAADYKDDDDKIEVMYPPPYLDNEKSNGTIIHVKGKHLCPSPLFPGPSKPFWVLVVVGGVLACYSLLVTVAFIIFWVRSKRSRLLHSDYMNMTPRRPGPTRKHYQPYAPPRDFAAYRSRVKFSRSADAPAYQQGQNQLYNELNLGRREEYDVLDKRRGRDPEMGGKPRRKNPQEGLYNELQKDKMAEAYSEIGMKGERRRGKGHDGLYQGLSTATKDTYDALHMQALPPR | 92.8% |
| VHH6 CAR (protein) DVQLQESGGGLVQAGGSLRLSCAVSGYPYSSYCMGWFRQAPGKEREGVAAIDSDGRTRYADSVKGRFTISQDNAKNTLYLQMNRMKPEDTAMYYCAARFGPMGCVDLSTLSFGHWGQGTQVTVSITGGGGSGGGGSGGGGSGGGGSDVQLQESGGGLVQAGGSLRLSCAVSGYPYSSYCMGWFRQAPGKEREGVAAIDSDGRTRYADSVKGRFTISQDNAKNTLYLQMNRMKPEDTAMYYCAARFGPMGCVDLSTLSFGHWGQGTQVTVSITAAADYKDDDDKIEVMYPPPYLDNEKSNGTIIHVKGKHLCPSPLFPGPSKPFWVLVVVGGVLACYSLLVTVAFIIFWVRSKRSRLLHSDYMNMTPRRPGPTRKHYQPYAPPRDFAAYRSRVKFSRSADAPAYQQGQNQLYNELNLGRREEYDVLDKRRGRDPEMGGKPRRKNPQEGLYNELQKDKMAEAYSEIGMKGERRRGKGHDGLYQGLSTATKDTYDALHMQALPPR | 99.1% |
| AHP19509-VHH1 CAR (protein) EVQLVESGGGLVQPGGSLRLSCAASGGTFNRYTMGWFRQAPGKEREFVSAISWSGGSTDYADSVKGRFTISRDNSKNTLYLQMNSLRAEDTAVYYCDTDRMPYRPVAAGILSWEANWGQGTLVTVSSGGGSGGGSGGGSGGGSEVQLVESGGGLVQPGGSLRLSCAASGGTFNRYTMGWFRQAPGKEREFVSAISWSGGSTDYADSVKGRFTISRDNSKNTLYLQMNSLRAEDTAVYYCDTDRMPYRPVAAGILSWEANWGQGTLVTVSSAAADYKDDDDKIEVMYPPPYLDNEKSNGTIIHVKGKHLCPSPLFPGPSKPFWVLVVVGGVLACYSLLVTVAFIIFWVRSKRSRLLHSDYMNMTPRRPGPTRKHYQPYAPPRDFAAYRSRVKFSRSADAPAYQQGQNQLYNELNLGRREEYDVLDKRRGRDPEMGGKPRRKNPQEGLYNELQKDKMAEAYSEIGMKGERRRGKGHDGLYQGLSTATKDTYDALHMQALPPR | 97.3% |
